The record followed here is US20100095387A1, “METHODS AND REAGENTS FOR SCREENING NEW DRUGS AND FOR TREATING ION PUMP ASSOCIATED DISORDERS AND DISEASES” (priority 2005, published 2010).

“Also recorded” adds a separate entry of the source.

The target in one assay is agrin receptors (Mus musculus, UniProt Q6PIC6). Kind of assay: Agrin receptor immunohistochemistry, binding of short agrin fragments to live cortical neurons. The protocol: The distribution of agrin receptors was studied using agrin deletion fragments as affinity probes. Neurons, plated on glass coverslips, were washed briefly (1-2 min) in cold PBS containing 10 mM EDTA followed by a second wash in cold PBS alone before incubation for 15 min at 4° C. with 1 pM recombinant mouse agrin in NBM. In some experiments, labeling with mouse agrin was performed in the presence of various concentrations of rat rC-Ag95y4z8 or rC-Agy0z0. Control cultures were treated with vector control protein or an equivalent volume of vehicle in which the recombinant agrin was dissolved. Cells were then washed in cold NBM, fixed for 40 min on ice in 4% PFA in PBS, then washed in PBS and blocked for 1 h in PBSB. Recombinant agrin was detected through the COOH-terminal 6× polyhistidine tag using an anti-his antibody (1:500; Invitrogen). In experiments where cells were double labeled for synaptophysin, the anti-synaptophysin:antiserum (1:400) was also added at this step. Incubations were performed overnight at 4° C. in PBSB, followed by labeling with fluorescein conjugated goat anti-mouse and Texas red labeled anti-rabbit antibodies as described in the previous paragraphs. In some experiments, the amount of mouse agrin bound was estimated by digital photomicrography using the public domain NIH Image program (http://rsb.info.nih.gov/nih-image/).

In assay [1] the target is T1, α3Na+/K+-ATPase (Mus musculus, UniProt Q6PIC6). Kind of assay: Whole cell current clamp of cultured cortical neurons, channel blockers present. Type of assay: cell-based. As to conditions: fragment alone.
Assay [2] deals with T1, α3Na+/K+-ATPase. The assay is described as follows: Na+ imaging (SBFI-AM) of cultured cortical cells. Type of assay: cell-based.
For the next assay, the system named is cardiac myocytes. The assay is described as follows: Spontaneous contraction frequency of cultured cardiac myocytes. As to conditions: Agrn+/− and Agrn−/− myocytes grown in fragment; listed as C-Ag208. Type of assay: cell-based, mouse. As for the experimental part: FIG. 17. Cardiac myocyte contraction is agrin dependent. Cardiac myocytes were prepared from hearts of individual embryos produced by heterozygous pairings. The genotype of cultures was determined by PCR analysis of tissue samples from each embryo. Myocytes were maintained in 199 medium containing 10% FCS as described (Mitcheson et al., 1998). At 5 days in culture, the frequency of spontaneous contractions was determined by counting contractions in myocytes from 5 random fields at 300× magnification for 30 seconds. Contraction frequency is dependent on Agrn gene dosage such that Agrn−/−>Agrn+/−>Agrn+/+. Addition of C-Ag208 to the growth medium rescues the Agrn mutant phenotype whereas C-Ag15 increased the contraction frequency of wild type myocytes to a level similar to Agrn−/− cells. Bars show mean±SEM for a minimum of 2 independent platings from 3 embryos, except for Agrn+/−treated with C-Ag208, which was a single plating of 2 embryos. All data were collected blind with respect to genotype and agrin treatment. *** p≦0.001. ANOVA with Bonferroni post-hoc pair-wise comparison.
Quantitative studies confirmed and extended these observations by showing that the frequency of myocyte contraction is dependent on agrin gene dose: Agrn−/− myocyte contraction frequency is about 2-fold higher and Agrn+/− 1.5-fold higher than Agrn+/+ myocytes (FIG. 17). To learn whether the effect of the Agrn mutation on myocyte contraction is a direct result of the loss of agrin expression the effects of growing the cells in media supplemented with C-Ag208, an active agrin fragment, or C-Ag15, the agrin antagonist was next examined.

The target of assay [3] is T2, α3 subunit of the Na+/K+-ATPase (Mus musculus, UniProt Q6PIC6).
T2 construct: a 110 kDa band characteristic of the native α3Na+/K+-ATPase; endogenous in cells; host or cells: primary mouse cortical neurons, 10-16 days in culture
Kind of assay: Chemical cross-linking of agrin fragments to cortical neurons, immunoprecipitation and immunoblot. The assay is classed as binding. The conditions noted are these: immunoprecipitation with phosphotyrosine antibody mAb4G10. As for the experimental part: Membrane impermeant chemical cross-linking agents BS^3 and DMA were used to stabilize the bond between agrin and its binding sites on cell surface membranes. Cultured neurons were washed briefly in PBS containing 10 mM EDTA followed by preincubation with one or more agrin fragment in PBS^2+ for 30 minutes at room temperature and then cooled on ice prior to addition of a 10× solution of cross-linking agent to a final concentration of 0.1 mM. The cross-linking reaction was allowed to proceed for 30 minutes after which any unreacted cross-linker was quenched and removed by washing with ice cold PBS^2+ containing 50 mM ethanolamine. For immunoblot analysis, cells were scraped into ice-cold TI buffer (20 mM Tris, pH 7.4; 10 mM EDTA; protease inhibitors (Sigma, P8340)) then Dounce homogenized and membrane fraction recovered by centrifugation. For the immunoprecipitation studies, cells were scraped and homogenized in TI buffer containing 150 mM NaCl and 0.5% Triton X-100. Cell extracts were cleared by centrifugation and aliquots of the detergent soluble fraction incubated with the appropriate antibody at 4° C. overnight. Antigen-antibody complexes were precipitated with either protein A or protein G and resuspended in SDS-PAGE sample buffer for immunoblot analysis.
Ligand induced phosphorylation is a common first step in membrane receptor activation and inhibition of tyrosine kinase activity blocks agrin signalling in central nervous system neurons. To determine if agrin induced phosphorylation of the putative agrin receptor, membranes from neurons cross-linked to C-Ag208 or C-Ag15, alone or in combination, were dissolved, in a detergent-containing buffer and aliquots immunoprecipitated with RAg1 or the phosphotyrosine antibody mAb4G10 (Upstate). Immunoprecipitated proteins were analyzed by immunoblotting with a monoclonal antibody (9E10.2, Invitrogen) against the COON-terminal myc tag on the agrin fragments.
To confirm the results of the mass spectrometry the ability of different α-subunit antibodies to recognize the putative agrin-Na^+/K^+-ATPase complex was tested. […]
For orientation: A western blot detects proteins with antibodies after separation by electrophoresis.

The subject of assay [4] is cultured cortical neurons. The assay is described as follows: Firing properties of cultured cortical neurons in normal external solution. The assay is classed as cell-based, mouse. As to conditions: normal external solution.
Assay [5] relates to layer V neurons in acute cortical slices. Kind of assay: Whole cell current clamp of layer V neurons in acute cortical slices. Type of assay: cell-based, mouse.

B1: rC-Agy4z8: soluble 95-kD COOH-terminal fragment of rat agrin, active "neural" isoform (protein)
chain: AATGTTAAMATARATTVSRLPASSVTPRVYPSHTSRPVGRTTAPPTTRRPPTTATNMDRPRTPGHQQPSKSCDSQPCLHGGTCQDQDSGKGFTCSCTAGRGGSVCEKVQPPSMPAFKGHSFLAFPTLRAYHTLRLALEFRALETEGLLLYNGNARGKDFLALALLDGRVQFRFDTGSGPAVLTSLVPVEPGRWHRLELSRHWRQGTLSVDGETPVVGESPSGTDGLNLDTNLYVGGIPEEQVAMVLDRTSVGVGLKGCIRMLDINNQQLELSDWQRAAVQSSGVGECGDHPCLPNPCHGGALCQALEAGMFLCQCPPGRFGPTCADEKSPCQPNPCHGAAPCRVLSSGGAKCECPLGRSGTFCQTVLETAGSRPFLADFNGFSYLELKGLHTFERDLGEKMALEMVFLARGPSGLLLYNGQKTDGKGDFVSLALHNRHLEFCYDLGKGAAVIRSKEPIALGTWVRVFLERNGRKGALQVGDGPRVLGESPKSRKVPHTMLNLKEPLYIGGAPDFSKLARGAAVSSGFSGVIQLVSLRGHQLLTQEHVLRAVDVSPFADHPCTQALGNPCLNGGSCVPREATYECLCPGGFSGLHCEKGLVEKSVGDLETLAFDGRTYIEYLNAVIESPETLDSRALFSEKALQSNHFELSLRTEATQGLVLWIGKAAERADYMALAIVDGHLQLSYDLGSQPVVLRSTVKVNTNRWLRIRAHREHREGSLQVGNEAPVTGSSPLGATQLDTDGALWLGGLQKLPVGQALPKAYGTGFVGCLRDVVVGHRQLHLLEDAVTKPELRPCPTP
In the case of B1, in the assay with agrin receptors (1:100 molar ratio of C-Ag20z8 to rC-Agy4z8), the C-Ag20z8 labeling entry is recorded as “barely detectable”. Also, the “binding of C-Ag20z8, C-Ag20z0 and C-Ag15” value in the assay with agrin receptors (large (500-fold molar) excess of rat agrin) is recorded as “completely blocked”.

B2: C-Ag20z8: C-Ag20 isoform having the z8 splice variant, SEQ. ID NO. 2 (protein)
chain: MDPRTYIEYLNAVTESELTNEIPAEKALQSNHFELTLRTEATQGWLVLWIGKAAERADYMALAIVDGHLQLSYDLASQPVVLRSTVKVNTNRWLRVRAHREHREGSLQVGNEAPVTSSSPLGATQLDTDGALWLGGLQKLPVGQPLPKAYGTGFVGCLRNVVGHRQLHLLEDAVTKPELRPCPTLNSKLGPEQKLISEEDLNSAVDHHHHHH
modifications: Synthetically produced sequence
B2: in the assay with α3Na+/K+-ATPase [1], the “effect on neuron membrane potential” value is “rapid and reversible depolarization”. Also, in the assay with α3Na+/K+-ATPase [2] (fragment or ouabain alone, neurons), the “neuronal intracellular Na+” value is “rapid increase”. Further, the “intracellular Na+ in non-neuronal cells” value in the assay with α3Na+/K+-ATPase [2] (non-neuronal cells) is “unaffected”. In addition, the contraction frequency entry in the assay with cardiac myocytes was “significant decrease; also recorded: rescues”. For the same molecule, the “tyrosine phosphorylation of the cross-linked complex” value in assay [3] is “phosphorylated”.

B3: C-Ag20z0: C-Ag20 isoform having the z0 splice variant, SEQ. ID NO. 1 (protein)
chain: MDPRTYIEYLNAVTESEKALQSNHFELTLRTEATQGWLVLWIGKAAERADYMALAIVDGHLQLSYDLASQPVVLRSTVKVNTNRWLRVRAHREHREGSLQVGNEAPVTSSSPLGATQLDTDGALWLGGLQKLPVGQPLPKAYGTGFVGCLRNVVGHRQLHLLEDAVTKPELRPCPTLNSKLGPEQKLISEEDLNSAVDHHHHHH
modifications: Synthetically produced sequence
Consider B3, for which, in assay [4], the membrane potential result is on record as “rapidly depolarized”. The “effect on neuron membrane potential” value with α3Na+/K+-ATPase [1] is “rapid and reversible depolarization”. Further, in assay [5] (bath application of fragment alone), the action potentials entry is “appearance of high frequency action potentials”. In assay [5] (bath application, slices from 6-11 day-old mice), this molecule displayed a membrane depolarization of 9.6±2.22 mV.
